One series concerns the target human insulin (Homo sapiens, UniProt P01308). As to the kind of experiment: Test of dissolution of human insulin at its isoelectric point. Type of series: physicochemical. Particulars: human insulin 100 IU/mL alone, pH 5.3. From the text: If an interaction exists between human insulin and the substituted anionic compound, it is then possible to dissolve the human insulin at its isoelectric point. […] The appearance of the solution is documented.

Another series deals with humans. Particulars: injected subcutaneously, diabetic patients; cited from earlier work.

Chain of human insulin (P01308 25-54 limits assumed): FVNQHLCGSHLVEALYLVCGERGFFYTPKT
Chain of human insulin (P01308 90-110 limits assumed): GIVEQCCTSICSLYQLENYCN

As for “Human insulin: Human insulin, tested at 100 IU/mL alone in the dissolution test; isoelectric point 5.3”, the Visual appearance result with human insulin is “Turbid”. The “time to hypoglycemiant effect” value in the series on humans is 60 min.
